Assay results reported in US20170081400A1 (CEPHALON, published 2017).

T1: human TL1A extracellular domain with N-terminal HIS and FLAG tag (human) (UniProt O95150)
T1 sequence: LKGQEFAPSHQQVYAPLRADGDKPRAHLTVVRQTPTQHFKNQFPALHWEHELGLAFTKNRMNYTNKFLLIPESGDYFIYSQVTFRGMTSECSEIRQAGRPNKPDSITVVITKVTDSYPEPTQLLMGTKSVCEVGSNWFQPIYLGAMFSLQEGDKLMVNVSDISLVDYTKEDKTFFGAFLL

T2: human TL1A extracellular domain with N-terminal HIS and FLAG tag (human, UniProt O95150 72-251)
T2 construct: whole entry named. ~70 kDa fraction purified by gel filtration
T2 sequence: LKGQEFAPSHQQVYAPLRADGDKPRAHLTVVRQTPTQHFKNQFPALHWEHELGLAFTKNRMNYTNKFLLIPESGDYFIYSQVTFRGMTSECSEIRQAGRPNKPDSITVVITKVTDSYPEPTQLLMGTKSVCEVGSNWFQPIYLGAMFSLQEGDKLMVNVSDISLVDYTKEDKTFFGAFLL


Key:
[1] = biological target: T1, human TL1A extracellular domain with N-terminal HIS and FLAG tag (human); experiment: cell-based or functional assay
[2] = biological target: T2, human TL1A extracellular domain with …; experiment: SPR run 3; supernatant on Protein A; TL1A 10 ug/mL; timepoint 59
Text: (§1) 1.5. Antibody expression and antigen binding as determined by SPR. Using a CM5 sensor chip (GE Healthcare) Protein A (Pierce) was coupled to the chip surface using an amine coupling kit (GE Healthcare). Protein A was coupled on flow cell 1 and 2 (or alternatively 3 and 4) using a BIACORE® T200. […] The amount of supernatant or purified protein (as well as the concentration) injected during the capture stage varied between runs and is specified in the header of the Tables 3-11. At the end of injection of the supernatant or purified antibody the change in response units was measured. This value was reported as Capture Level in Tables 3-11. […] The response units were measured prior to the end of the dissociation phase. […] The sensorgrams were double referenced (flow cell 2 is subtracted from flow cell 1 and a buffer blank). As there were a large number of antibody variants to screen, these were screened across different runs (Tables 3-11). […] A summary of the conditions used in each run is below:
(§2) 2.1. […] In some experiment the antibodies were purified using Protein A chromatography (See 1.4) and purified antibodies were used in BIACORE® (GE Healthcare) experiments.

[3] = biological target: T2, human TL1A extracellular domain with …; experiment: SPR run 3; supernatant on Protein A; TL1A 10 ug/mL; timepoint 590
Text: as §1, §2

| Binder | Antibody IC50, TL1A induced caspase potency assay in TF-1 cells [1] [ng/mL] | Fold improvement over 320-179, TL1A induced caspase potency assay in TF-1 cells [1] [fold] | TL1A Binding Level (Early) [2] [RU] | TL1A Binding Level (Late) [3] [RU] |
| --- | --- | --- | --- | --- |
| 320-263 (antibody, human IgG1, name in Kabat numbering, V domains shown, human IgG1, lambda) VH: QVQLVQSGAEVKKPGASVKVSCKASGYTFTSYDINWVRQAPGQGLEWMGWLNPNSGNTGYAQKFQGRVTMTADRSTSTAYMELSSLRSEDTAVYYCAREVPETAAFEYWGQGTLVTVSS VL: QSVLTQPPSVSGAPGQRVTISCTSSSSDIGKGLGVHWYQQLPGTAPKLLIEGYYNRPSGVPDRFSGSKSGTSASLTITGLLPEDEGDYYCQSYDGTLSALFGGGTKLTVLG | 3 | 3 | 121 | 123 |
| 320-280 (antibody, human IgG1, name in Kabat numbering, V domains shown, human IgG1, lambda) VH: QVQLVQSGAEVKKPGASVKVSCKASGYTFTSYDINWVRQAPGQGLEWMGWLNPNSGNTGYAQKFQGRVTMTADRSTSTAYMELSSLRSEDTAVYYCAREVPETAAFEYWGQGTLVTVSS VL: QSVLTQPPSVSGAPGQRVTISCTSSSSDIGAGHGVHWYQQLPGTAPKLLIEGYYNRPSGVPDRFSGSKSGTSASLTITGLLPEDEGDYYCQSYDGTLSALFGGGTKLTVLG | 6 | 3 | 228 | 211 |
| 320-267 (antibody, human IgG1, V domains shown, human IgG1, lambda) VH: QVQLVQSGAEVKKPGASVKVSCKASGYTFTSYDINWVRQAPGQGLEWMGWLNPNSGNTGYAQKFQGRVTMTADRSTSTAYMELSSLRSEDTAVYYCAREVPETAAFEYWGQGTLVTVSS VL: QSVLTQPPSVSGAPGQRVTISCTSSSSDIGAALGVHWYQQLPGTAPKLLIEGYYNRPSGVPDRFSGSKSGTSASLTITGLLPEDEGDYYCQSYDGTLSALFGGGTKLTVLG | – | – | 299 | 297 |
| 320-303 (antibody, human IgG1, name in Kabat numbering, V domains shown, human IgG1, lambda) VH: QVQLVQSGAEVKKPGASVKVSCKASGYTFTSYDINWVRQAPGQGLEWMGWLNPNSGNTGYAQKFQGRVTMTADRSTSTAYMELSSLRSEDTAVYYCAREVPETAAFEYWGQGTLVTVSS VL: QSVLTQPPSVSGAPGQRVTISCTSSSSDIGAGLGVSWYQQLPGTAPKLLIEGYYNRPSGVPDRFSGSKSGTSASLTITGLLPEDEGDYYCQSYDGTLSALFGGGTKLTVLG | – | – | 71 | 32 |
| 320-310 (antibody, human IgG1, name in Kabat numbering, V domains shown, human IgG1, lambda) VH: QVQLVQSGAEVKKPGASVKVSCKASGYTFTSYDINWVRQAPGQGLEWMGWLNPNSGNTGYAQKFQGRVTMTADRSTSTAYMELSSLRSEDTAVYYCAREVPETAAFEYWGQGTLVTVSS VL: QSVLTQPPSVSGAPGQRVTISCTSSSSDIGAGLGVHWYQQLPGTAPKLLIEGYYNRPSGVPDRFSGSKSGTSASLTITGLLPEDEGDYYCASYDGTLSALFGGGTKLTVLG | – | – | 70 | 62 |
| 320-306 (antibody, human IgG1, name in Kabat numbering, V domains shown, human IgG1, lambda) VH: QVQLVQSGAEVKKPGASVKVSCKASGYTFTSYDINWVRQAPGQGLEWMGWLNPNSGNTGYAQKFQGRVTMTADRSTSTAYMELSSLRSEDTAVYYCAREVPETAAFEYWGQGTLVTVSS VL: QSVLTQPPSVSGAPGQRVTISCTSSSSDIGAGLGVKWYQQLPGTAPKLLIEGYYNRPSGVPDRFSGSKSGTSASLTITGLLPEDEGDYYCQSYDGTLSALFGGGTKLTVLG | – | – | 147 | 133 |
| 320-308 (antibody, human IgG1, name in Kabat numbering, V domains shown, human IgG1, lambda) VH: QVQLVQSGAEVKKPGASVKVSCKASGYTFTSYDINWVRQAPGQGLEWMGWLNPNSGNTGYAQKFQGRVTMTADRSTSTAYMELSSLRSEDTAVYYCAREVPETAAFEYWGQGTLVTVSS VL: QSVLTQPPSVSGAPGQRVTISCTSSSSDIGAGLGVWWYQQLPGTAPKLLIEGYYNRPSGVPDRFSGSKSGTSASLTITGLLPEDEGDYYCQSYDGTLSALFGGGTKLTVLG | – | – | 106 | 73 |
| 320-298 (antibody, human IgG1, name in Kabat numbering, V domains shown, human IgG1, lambda) VH: QVQLVQSGAEVKKPGASVKVSCKASGYTFTSYDINWVRQAPGQGLEWMGWLNPNSGNTGYAQKFQGRVTMTADRSTSTAYMELSSLRSEDTAVYYCAREVPETAAFEYWGQGTLVTVSS VL: QSVLTQPPSVSGAPGQRVTISCTSSSSDIGAGLGKHWYQQLPGTAPKLLIEGYYNRPSGVPDRFSGSKSGTSASLTITGLLPEDEGDYYCQSYDGTLSALFGGGTKLTVLG | – | – | 114 | 100 |
| 320-305 (antibody, human IgG1, name in Kabat numbering, V domains shown, human IgG1, lambda) VH: QVQLVQSGAEVKKPGASVKVSCKASGYTFTSYDINWVRQAPGQGLEWMGWLNPNSGNTGYAQKFQGRVTMTADRSTSTAYMELSSLRSEDTAVYYCAREVPETAAFEYWGQGTLVTVSS VL: QSVLTQPPSVSGAPGQRVTISCTSSSSDIGAGLGVDWYQQLPGTAPKLLIEGYYNRPSGVPDRFSGSKSGTSASLTITGLLPEDEGDYYCQSYDGTLSALFGGGTKLTVLG | – | – | 34 | 10 |
| 320-299 (antibody, human IgG1, name in Kabat numbering, V domains shown, human IgG1, lambda) VH: QVQLVQSGAEVKKPGASVKVSCKASGYTFTSYDINWVRQAPGQGLEWMGWLNPNSGNTGYAQKFQGRVTMTADRSTSTAYMELSSLRSEDTAVYYCAREVPETAAFEYWGQGTLVTVSS VL: QSVLTQPPSVSGAPGQRVTISCTSSSSDIGAGLGLHWYQQLPGTAPKLLIEGYYNRPSGVPDRFSGSKSGTSASLTITGLLPEDEGDYYCQSYDGTLSALFGGGTKLTVLG | – | – | 51 | 13 |
| 320-304 (antibody, human IgG1, name in Kabat numbering, V domains shown, human IgG1, lambda) VH: QVQLVQSGAEVKKPGASVKVSCKASGYTFTSYDINWVRQAPGQGLEWMGWLNPNSGNTGYAQKFQGRVTMTADRSTSTAYMELSSLRSEDTAVYYCAREVPETAAFEYWGQGTLVTVSS VL: QSVLTQPPSVSGAPGQRVTISCTSSSSDIGAGLGVQWYQQLPGTAPKLLIEGYYNRPSGVPDRFSGSKSGTSASLTITGLLPEDEGDYYCQSYDGTLSALFGGGTKLTVLG | – | – | 103 | 82 |
| 320-297 (antibody, human IgG1, name in Kabat numbering, V domains shown, human IgG1, lambda) VH: QVQLVQSGAEVKKPGASVKVSCKASGYTFTSYDINWVRQAPGQGLEWMGWLNPNSGNTGYAQKFQGRVTMTADRSTSTAYMELSSLRSEDTAVYYCAREVPETAAFEYWGQGTLVTVSS VL: QSVLTQPPSVSGAPGQRVTISCTSSSSDIGAGLGHHWYQQLPGTAPKLLIEGYYNRPSGVPDRFSGSKSGTSASLTITGLLPEDEGDYYCQSYDGTLSALFGGGTKLTVLG | 5 | 4 | 95 | 77 |
| 320-296 (antibody, human IgG1, name in Kabat numbering, V domains shown, human IgG1, lambda) VH: QVQLVQSGAEVKKPGASVKVSCKASGYTFTSYDINWVRQAPGQGLEWMGWLNPNSGNTGYAQKFQGRVTMTADRSTSTAYMELSSLRSEDTAVYYCAREVPETAAFEYWGQGTLVTVSS VL: QSVLTQPPSVSGAPGQRVTISCTSSSSDIGAGLGDHWYQQLPGTAPKLLIEGYYNRPSGVPDRFSGSKSGTSASLTITGLLPEDEGDYYCQSYDGTLSALFGGGTKLTVLG | – | – | 118 | 104 |
| 320-278 (antibody, human IgG1, V domains shown, human IgG1, lambda) VH: QVQLVQSGAEVKKPGASVKVSCKASGYTFTSYDINWVRQAPGQGLEWMGWLNPNSGNTGYAQKFQGRVTMTADRSTSTAYMELSSLRSEDTAVYYCAREVPETAAFEYWGQGTLVTVSS VL: QSVLTQPPSVSGAPGQRVTISCTSSSSDIGAGQGVHWYQQLPGTAPKLLIEGYYNRPSGVPDRFSGSKSGTSASLTITGLLPEDEGDYYCQSYDGTLSALFGGGTKLTVLG | – | – | 389 | 374 |
| 320-309 (antibody, human IgG1, name in Kabat numbering, V domains shown, human IgG1, lambda) VH: QVQLVQSGAEVKKPGASVKVSCKASGYTFTSYDINWVRQAPGQGLEWMGWLNPNSGNTGYAQKFQGRVTMTADRSTSTAYMELSSLRSEDTAVYYCAREVPETAAFEYWGQGTLVTVSS VL: QSVLTQPPSVSGAPGQRVTISCTSSSSDIGAGLGVYWYQQLPGTAPKLLIEGYYNRPSGVPDRFSGSKSGTSASLTITGLLPEDEGDYYCQSYDGTLSALFGGGTKLTVLG | – | – | 47 | 40 |
| 320-277 (antibody, human IgG1, V domains shown, human IgG1, lambda) VH: QVQLVQSGAEVKKPGASVKVSCKASGYTFTSYDINWVRQAPGQGLEWMGWLNPNSGNTGYAQKFQGRVTMTADRSTSTAYMELSSLRSEDTAVYYCAREVPETAAFEYWGQGTLVTVSS VL: QSVLTQPPSVSGAPGQRVTISCTSSSSDIGAGSGVHWYQQLPGTAPKLLIEGYYNRPSGVPDRFSGSKSGTSASLTITGLLPEDEGDYYCQSYDGTLSALFGGGTKLTVLG | – | – | 387 | 361 |
